Measured values from article PMC11405395 (The EMBO Journal, 2024).

B1: RTEL1 ΔE813-E821 ΔR875-V881 (enzyme, human, UniProt Q9NZ71-1 1-1219, looked up)
chain: MPKIVLNGVTVDFPFQPYKCQQEYMTKVLECLQQKVNGILESPTGTGKTLCLLCTTLAWREHLRDGISARKIAERAQGELFPDRALSSWGNAAAAAGDPIACYTDIPKIIYASRTHSQLTQVINELRNTSYRPKVCVLGSREQLCIHPEVKKQESNHLQIHLCRKKVASRSCHFYNNVEEKSLEQELASPILDIEDLVKSGSKHRVCPYYLSRNLKQQADIIFMPYNYLLDAKSRRAHNIDLKGTVVIFDEAHNVEKMCEESASFDLTPHDLASGLDVIDQVLEEQTKAAQQGEPHPEFSADSPSPGLNMELEDIAKLKMILLRLEGAIDAVELPGDDSGVTKPGSYIFELFAEAQITFQTKGCILDSLDQIIQHLAGRAGVFTNTAGLQKLADIIQIVFSVDPSEGSPGSPAGLGALQSYKVHIHPDAGHRRTAQRSDAWSTTAARKRGKVLSYWCFSPGHSMHELVRQGVRSLILTSGTLAPVSSFALEMQIPFPVCLENPHIIDKHQIWVGVVPRGPDGAQLSSAFDRRFSEECLSSLGKALGNIARVVPYGLLIFFPSYPVMEKSLEFWRARDLARKMEALKPLFVEPRSKGSFSETISAYYARVAAPGSTGATFLAVCRGKASEGLDFSDTNGRGVIVTGLPYPPRMDPRVVLKMQFLDEMKGQGGAGGQFLSGQEWYRQQASRAVNQAIGRVIRHRQDYGAVFLCDHRFAFADARAQLPSWVRPHVRVYDNFGHVIRDVAQFFRVAERTMPAPAPRATAPSVRGEDAVSEAKSPGPFFSTRKAKSLDLHVPSLKQRSSGSPAAGDPQEPVPARQRPRGLLAALEHSEQRAGSPGEEQAHSCSTLSLLSEKRPAEEPRGGSHPEEPVAGAQTDRAKLFMVAVKQELSQANFATFTQALQDYKGSDDFAALAACLGPLFAEDPKKHNLLQGFYQFVRPHHKQQFEEVCIQLTGRGCGYRPEHSIPRRQRAQPVLDPTGRTAPDPKLTVSTAAAQQLDPQEHLNQGRPHLSPRPPPTGDPGSQPQWGSGVPRAGKQGQHAVSAYLADARRALGSAGCSQLLAALTAYKQDDDLDKVLAVLAALTTAKPEDFPLLHRFSMFVRPHHKQRFSQTCTDLTGRPYPGMEPPGPQEERLAVPPVLTHRAPQPGPSRSEKTGKTQSKISSFLRQRPAGTVGAGGEDAGPSQSSGPPHGPAASEWGL
notes: Plasmid pSP53; also called hsRTEL1ΔE813-E821 ΔR875-V881; source: S. cerevisiae strain ySP070, purified (anti-FLAG M2 resin, HiLoad Superdex 200); not shown: 2XFLAG, C-terminal, kept
B2: RTEL1ΔE813-E821 (enzyme, human, UniProt Q9NZ71-1 1-1219, looked up)
chain: MPKIVLNGVTVDFPFQPYKCQQEYMTKVLECLQQKVNGILESPTGTGKTLCLLCTTLAWREHLRDGISARKIAERAQGELFPDRALSSWGNAAAAAGDPIACYTDIPKIIYASRTHSQLTQVINELRNTSYRPKVCVLGSREQLCIHPEVKKQESNHLQIHLCRKKVASRSCHFYNNVEEKSLEQELASPILDIEDLVKSGSKHRVCPYYLSRNLKQQADIIFMPYNYLLDAKSRRAHNIDLKGTVVIFDEAHNVEKMCEESASFDLTPHDLASGLDVIDQVLEEQTKAAQQGEPHPEFSADSPSPGLNMELEDIAKLKMILLRLEGAIDAVELPGDDSGVTKPGSYIFELFAEAQITFQTKGCILDSLDQIIQHLAGRAGVFTNTAGLQKLADIIQIVFSVDPSEGSPGSPAGLGALQSYKVHIHPDAGHRRTAQRSDAWSTTAARKRGKVLSYWCFSPGHSMHELVRQGVRSLILTSGTLAPVSSFALEMQIPFPVCLENPHIIDKHQIWVGVVPRGPDGAQLSSAFDRRFSEECLSSLGKALGNIARVVPYGLLIFFPSYPVMEKSLEFWRARDLARKMEALKPLFVEPRSKGSFSETISAYYARVAAPGSTGATFLAVCRGKASEGLDFSDTNGRGVIVTGLPYPPRMDPRVVLKMQFLDEMKGQGGAGGQFLSGQEWYRQQASRAVNQAIGRVIRHRQDYGAVFLCDHRFAFADARAQLPSWVRPHVRVYDNFGHVIRDVAQFFRVAERTMPAPAPRATAPSVRGEDAVSEAKSPGPFFSTRKAKSLDLHVPSLKQRSSGSPAAGDPQEPVPARQRPRGLLAALEHSEQRAGSPGEEQAHSCSTLSLLSEKRPAEEPRGGRKKIRLVSHPEEPVAGAQTDRAKLFMVAVKQELSQANFATFTQALQDYKGSDDFAALAACLGPLFAEDPKKHNLLQGFYQFVRPHHKQQFEEVCIQLTGRGCGYRPEHSIPRRQRAQPVLDPTGRTAPDPKLTVSTAAAQQLDPQEHLNQGRPHLSPRPPPTGDPGSQPQWGSGVPRAGKQGQHAVSAYLADARRALGSAGCSQLLAALTAYKQDDDLDKVLAVLAALTTAKPEDFPLLHRFSMFVRPHHKQRFSQTCTDLTGRPYPGMEPPGPQEERLAVPPVLTHRAPQPGPSRSEKTGKTQSKISSFLRQRPAGTVGAGGEDAGPSQSSGPPHGPAASEWGL
notes: Plasmid pSP51; also called hsRTEL1ΔE813-E821; source: S. cerevisiae strain ySP075, purified (anti-FLAG M2 resin, HiLoad Superdex 200); not shown: 2XFLAG, C-terminal, kept
B3: RTEL1ΔL834-G846 (enzyme, human, UniProt Q9NZ71-1 1-1219, looked up)
chain: MPKIVLNGVTVDFPFQPYKCQQEYMTKVLECLQQKVNGILESPTGTGKTLCLLCTTLAWREHLRDGISARKIAERAQGELFPDRALSSWGNAAAAAGDPIACYTDIPKIIYASRTHSQLTQVINELRNTSYRPKVCVLGSREQLCIHPEVKKQESNHLQIHLCRKKVASRSCHFYNNVEEKSLEQELASPILDIEDLVKSGSKHRVCPYYLSRNLKQQADIIFMPYNYLLDAKSRRAHNIDLKGTVVIFDEAHNVEKMCEESASFDLTPHDLASGLDVIDQVLEEQTKAAQQGEPHPEFSADSPSPGLNMELEDIAKLKMILLRLEGAIDAVELPGDDSGVTKPGSYIFELFAEAQITFQTKGCILDSLDQIIQHLAGRAGVFTNTAGLQKLADIIQIVFSVDPSEGSPGSPAGLGALQSYKVHIHPDAGHRRTAQRSDAWSTTAARKRGKVLSYWCFSPGHSMHELVRQGVRSLILTSGTLAPVSSFALEMQIPFPVCLENPHIIDKHQIWVGVVPRGPDGAQLSSAFDRRFSEECLSSLGKALGNIARVVPYGLLIFFPSYPVMEKSLEFWRARDLARKMEALKPLFVEPRSKGSFSETISAYYARVAAPGSTGATFLAVCRGKASEGLDFSDTNGRGVIVTGLPYPPRMDPRVVLKMQFLDEMKGQGGAGGQFLSGQEWYRQQASRAVNQAIGRVIRHRQDYGAVFLCDHRFAFADARAQLPSWVRPHVRVYDNFGHVIRDVAQFFRVAERTMPAPAPRATAPSVRGEDAVSEAKSPGPFFSTRKAKSLDLHVPSLKQRSSGSPAAGDPESSLCVEYEQEPVPARQRPRGSPGEEQAHSCSTLSLLSEKRPAEEPRGGRKKIRLVSHPEEPVAGAQTDRAKLFMVAVKQELSQANFATFTQALQDYKGSDDFAALAACLGPLFAEDPKKHNLLQGFYQFVRPHHKQQFEEVCIQLTGRGCGYRPEHSIPRRQRAQPVLDPTGRTAPDPKLTVSTAAAQQLDPQEHLNQGRPHLSPRPPPTGDPGSQPQWGSGVPRAGKQGQHAVSAYLADARRALGSAGCSQLLAALTAYKQDDDLDKVLAVLAALTTAKPEDFPLLHRFSMFVRPHHKQRFSQTCTDLTGRPYPGMEPPGPQEERLAVPPVLTHRAPQPGPSRSEKTGKTQSKISSFLRQRPAGTVGAGGEDAGPSQSSGPPHGPAASEWGL
notes: Plasmid pSP48; also called hsRTEL1ΔL834-G846; source: S. cerevisiae strain ySP072, purified (anti-FLAG M2 resin, HiLoad Superdex 200); not shown: 2XFLAG, C-terminal, kept
B4: RTEL1ΔR875-V881 (enzyme, human, UniProt Q9NZ71-1 1-1219, looked up)
chain: MPKIVLNGVTVDFPFQPYKCQQEYMTKVLECLQQKVNGILESPTGTGKTLCLLCTTLAWREHLRDGISARKIAERAQGELFPDRALSSWGNAAAAAGDPIACYTDIPKIIYASRTHSQLTQVINELRNTSYRPKVCVLGSREQLCIHPEVKKQESNHLQIHLCRKKVASRSCHFYNNVEEKSLEQELASPILDIEDLVKSGSKHRVCPYYLSRNLKQQADIIFMPYNYLLDAKSRRAHNIDLKGTVVIFDEAHNVEKMCEESASFDLTPHDLASGLDVIDQVLEEQTKAAQQGEPHPEFSADSPSPGLNMELEDIAKLKMILLRLEGAIDAVELPGDDSGVTKPGSYIFELFAEAQITFQTKGCILDSLDQIIQHLAGRAGVFTNTAGLQKLADIIQIVFSVDPSEGSPGSPAGLGALQSYKVHIHPDAGHRRTAQRSDAWSTTAARKRGKVLSYWCFSPGHSMHELVRQGVRSLILTSGTLAPVSSFALEMQIPFPVCLENPHIIDKHQIWVGVVPRGPDGAQLSSAFDRRFSEECLSSLGKALGNIARVVPYGLLIFFPSYPVMEKSLEFWRARDLARKMEALKPLFVEPRSKGSFSETISAYYARVAAPGSTGATFLAVCRGKASEGLDFSDTNGRGVIVTGLPYPPRMDPRVVLKMQFLDEMKGQGGAGGQFLSGQEWYRQQASRAVNQAIGRVIRHRQDYGAVFLCDHRFAFADARAQLPSWVRPHVRVYDNFGHVIRDVAQFFRVAERTMPAPAPRATAPSVRGEDAVSEAKSPGPFFSTRKAKSLDLHVPSLKQRSSGSPAAGDPESSLCVEYEQEPVPARQRPRGLLAALEHSEQRAGSPGEEQAHSCSTLSLLSEKRPAEEPRGGSHPEEPVAGAQTDRAKLFMVAVKQELSQANFATFTQALQDYKGSDDFAALAACLGPLFAEDPKKHNLLQGFYQFVRPHHKQQFEEVCIQLTGRGCGYRPEHSIPRRQRAQPVLDPTGRTAPDPKLTVSTAAAQQLDPQEHLNQGRPHLSPRPPPTGDPGSQPQWGSGVPRAGKQGQHAVSAYLADARRALGSAGCSQLLAALTAYKQDDDLDKVLAVLAALTTAKPEDFPLLHRFSMFVRPHHKQRFSQTCTDLTGRPYPGMEPPGPQEERLAVPPVLTHRAPQPGPSRSEKTGKTQSKISSFLRQRPAGTVGAGGEDAGPSQSSGPPHGPAASEWGL
notes: Plasmid pSP52; also called hsRTEL1ΔR875-V881; source: S. cerevisiae strain ySP076, purified (anti-FLAG M2 resin, HiLoad Superdex 200); not shown: 2XFLAG, C-terminal, kept

Legend:
[1] = target: T1, Homo sapiens DNA polymerase ε (POLE1, POLE2, POLE3, POLE4) (human, UniProt Q07864 1-2286; P56282 1-527; Q9NRF9 1-147; Q9NR33 1-117); experiment: co-IP; purified proteins mixed: 10 nM RTEL1-FLAG with 15 nM hsPol ε, 10 min on ice; anti-FLAG M2 magnetic beads; 25 mM Hepes-KOH pH 7.6, 200 mM KOAc, 0.02% NP-40-S, 0.1 mg/mL BSA, 1 mM DTT, 10 mM Mg(OAc)2; immunoblotting; conditions: both partners purified
T1 construct: POLE1 (catalytic subunit of DNA polymerase ε), human; POLE2 (homologue of budding yeast Dpb2), human (PolE2_tev_2XFLAG; tag removed with TEV protease); POLE3, human; POLE4, human; The methods call the removed tag 3FLAG, the strain and plasmid 2XFLAG; also called hsPOL ε; POL ε; source: S. cerevisiae strain ySP061, purified (anti-FLAG M2 resin, TEV cleavage, MonoQ, Superdex 200); not shown: …
T1 sequence (Q07864 whole entry, chain 1 of 4): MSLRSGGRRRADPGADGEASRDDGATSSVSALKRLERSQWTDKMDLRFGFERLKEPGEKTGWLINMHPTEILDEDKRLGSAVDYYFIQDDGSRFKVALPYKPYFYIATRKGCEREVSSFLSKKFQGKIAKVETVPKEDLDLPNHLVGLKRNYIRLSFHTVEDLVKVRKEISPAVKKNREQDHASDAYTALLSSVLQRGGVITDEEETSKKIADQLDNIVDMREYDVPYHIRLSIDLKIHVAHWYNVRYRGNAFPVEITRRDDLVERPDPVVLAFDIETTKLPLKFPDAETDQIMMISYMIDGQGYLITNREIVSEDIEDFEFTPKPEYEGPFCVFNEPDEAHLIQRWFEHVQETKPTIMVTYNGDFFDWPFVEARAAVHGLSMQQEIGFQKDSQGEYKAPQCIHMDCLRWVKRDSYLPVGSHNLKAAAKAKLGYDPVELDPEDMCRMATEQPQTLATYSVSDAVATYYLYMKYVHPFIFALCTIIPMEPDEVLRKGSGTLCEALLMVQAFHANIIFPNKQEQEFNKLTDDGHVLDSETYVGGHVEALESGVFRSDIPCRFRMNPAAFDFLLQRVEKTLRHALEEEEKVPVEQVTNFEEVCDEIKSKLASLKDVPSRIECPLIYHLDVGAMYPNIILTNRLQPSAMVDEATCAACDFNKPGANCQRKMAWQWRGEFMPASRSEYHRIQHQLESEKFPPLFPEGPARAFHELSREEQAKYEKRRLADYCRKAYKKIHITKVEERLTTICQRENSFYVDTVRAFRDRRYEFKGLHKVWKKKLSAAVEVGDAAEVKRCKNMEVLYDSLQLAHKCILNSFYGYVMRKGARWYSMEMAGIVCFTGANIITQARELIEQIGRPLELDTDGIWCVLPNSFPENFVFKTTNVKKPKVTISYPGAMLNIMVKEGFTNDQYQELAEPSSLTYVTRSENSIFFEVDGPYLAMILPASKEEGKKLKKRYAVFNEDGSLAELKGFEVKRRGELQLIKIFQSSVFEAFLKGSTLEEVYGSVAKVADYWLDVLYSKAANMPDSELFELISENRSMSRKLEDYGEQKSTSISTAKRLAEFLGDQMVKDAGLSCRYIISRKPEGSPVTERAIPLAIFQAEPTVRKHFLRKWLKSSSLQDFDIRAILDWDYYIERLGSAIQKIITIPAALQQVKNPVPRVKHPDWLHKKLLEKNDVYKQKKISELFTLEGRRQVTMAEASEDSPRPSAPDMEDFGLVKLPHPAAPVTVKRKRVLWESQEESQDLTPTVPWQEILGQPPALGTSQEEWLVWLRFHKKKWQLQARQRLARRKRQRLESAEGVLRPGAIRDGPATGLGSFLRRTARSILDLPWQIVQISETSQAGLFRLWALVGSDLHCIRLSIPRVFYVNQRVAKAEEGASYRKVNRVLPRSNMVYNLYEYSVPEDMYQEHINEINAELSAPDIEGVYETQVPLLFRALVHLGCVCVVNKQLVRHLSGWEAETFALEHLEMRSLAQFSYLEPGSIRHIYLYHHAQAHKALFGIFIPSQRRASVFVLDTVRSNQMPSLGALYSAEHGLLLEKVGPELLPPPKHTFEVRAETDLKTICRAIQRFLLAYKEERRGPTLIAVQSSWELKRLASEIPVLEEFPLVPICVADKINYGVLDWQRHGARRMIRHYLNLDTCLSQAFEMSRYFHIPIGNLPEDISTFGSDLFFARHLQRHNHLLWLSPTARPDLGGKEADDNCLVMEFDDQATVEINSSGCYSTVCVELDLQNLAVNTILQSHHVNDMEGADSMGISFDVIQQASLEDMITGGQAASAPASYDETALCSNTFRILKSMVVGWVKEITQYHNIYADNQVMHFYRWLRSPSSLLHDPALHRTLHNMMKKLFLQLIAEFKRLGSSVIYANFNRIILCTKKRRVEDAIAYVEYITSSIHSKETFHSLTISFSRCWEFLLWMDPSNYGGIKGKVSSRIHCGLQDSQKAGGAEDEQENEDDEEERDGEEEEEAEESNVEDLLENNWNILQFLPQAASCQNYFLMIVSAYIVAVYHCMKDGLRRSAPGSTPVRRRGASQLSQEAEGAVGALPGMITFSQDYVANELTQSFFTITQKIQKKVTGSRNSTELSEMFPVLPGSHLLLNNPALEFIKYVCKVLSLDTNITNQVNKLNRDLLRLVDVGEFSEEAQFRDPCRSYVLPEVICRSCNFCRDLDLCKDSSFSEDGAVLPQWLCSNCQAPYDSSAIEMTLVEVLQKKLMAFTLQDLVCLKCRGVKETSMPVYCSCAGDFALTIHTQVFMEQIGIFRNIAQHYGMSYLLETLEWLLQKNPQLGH
T1 sequence (P56282 whole entry, chain 2 of 4): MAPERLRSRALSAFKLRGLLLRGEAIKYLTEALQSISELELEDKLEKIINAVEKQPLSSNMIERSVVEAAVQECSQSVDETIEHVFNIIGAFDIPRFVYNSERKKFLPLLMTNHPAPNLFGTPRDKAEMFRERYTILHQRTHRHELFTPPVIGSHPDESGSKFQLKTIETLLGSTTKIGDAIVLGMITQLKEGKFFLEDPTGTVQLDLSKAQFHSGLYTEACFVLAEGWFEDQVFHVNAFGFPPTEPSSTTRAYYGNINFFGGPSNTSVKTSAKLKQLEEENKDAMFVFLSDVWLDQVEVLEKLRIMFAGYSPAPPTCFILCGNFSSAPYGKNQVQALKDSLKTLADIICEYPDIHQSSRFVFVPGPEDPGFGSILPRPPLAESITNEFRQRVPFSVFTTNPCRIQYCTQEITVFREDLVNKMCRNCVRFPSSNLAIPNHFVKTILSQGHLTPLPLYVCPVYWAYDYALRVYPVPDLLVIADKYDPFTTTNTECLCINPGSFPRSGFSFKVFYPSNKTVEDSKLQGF
T1 sequence (Q9NRF9 whole entry, chain 3 of 4): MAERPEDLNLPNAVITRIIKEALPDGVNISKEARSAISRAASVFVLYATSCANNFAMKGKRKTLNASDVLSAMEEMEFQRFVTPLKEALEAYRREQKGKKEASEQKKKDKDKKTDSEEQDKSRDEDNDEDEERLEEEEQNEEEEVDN
T1 sequence (Q9NR33 whole entry, chain 4 of 4): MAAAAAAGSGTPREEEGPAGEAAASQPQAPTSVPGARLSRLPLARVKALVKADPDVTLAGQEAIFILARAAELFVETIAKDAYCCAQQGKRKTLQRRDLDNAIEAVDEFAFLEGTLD

[2] = target: T2, Homo sapiens CMG helicase (CDC45-MCM2-7-GINS) (human, UniProt P49736 1-904; P25205 1-808; P33991 1-863; P33992 1-734; Q14566 1-821; P33993 …); experiment: co-IP; purified proteins mixed: 10 nM RTEL1-FLAG with 15 nM hsCMG, 10 min on ice; anti-FLAG M2 magnetic beads; 25 mM Hepes-KOH pH 7.6, 100 mM KOAc, 0.02% NP-40-S, 0.1 mg/mL BSA, 1 mM DTT, 10 mM Mg(OAc)2; immunoblotting; conditions: both partners purified
T2 construct: MCM2, human, subunit of CMG; MCM3, human, subunit of CMG; MCM4, human, subunit of CMG; MCM5, human, subunit of CMG; MCM6, human, subunit of CMG; MCM7, human, subunit of CMG; CDC45, human, subunit of CMG; SLD5 (GINS4), human, GINS subunit of CMG (PrA-3TEV-HsSld5; eluted from IgG Sepharose with TEV protease); PSF1 (GINS1), human, GINS subunit of CMG; PSF2 (GINS2), human, GINS subunit of CMG; PSF3 …

Binder | binding result [1] | binding result [2]
B1 | binds | 
B2 | binds | binds
B3 |  | binds
B4 | binds | 
